From IntAct's records for PubMed 17948050

B1: Mucosa-associated lymphoid tissue lymphoma translocation protein 1 (Homo sapiens), Q9UDY8 (parent)
chain: MSLLGDPLQALPPSAAPTGPLLAPPAGATLNRLREPLLRRLSELLDQAPEGRGWRRLAELAGSRGRLRLSCLDLEQCSLKVLEPEGSPSLCLLKLMGEKGCTVTELSDFLQAMEHTEVLQLLSPPGIKITVNPESKAVLAGQFVKLCCRATGHPFVQYQWFKMNKEIPNGNTSELIFNAVHVKDAGFYVCRVNNNFTFEFSQWSQLDVCDIPESFQRSVDGVSESKLQICVEPTSQKLMPGSTLVLQCVAVGSPIPHYQWFKNELPLTHETKKLYMVPYVDLEHQGTYWCHVYNDRDSQDSKKVEIIIGRTDEAVECTEDELNNLGHPDNKEQTTDQPLAKDKVALLIGNMNYREHPKLKAPLVDVYELTNLLRQLDFKVVSLLDLTEYEMRNAVDEFLLLLDKGVYGLLYYAGHGYENFGNSFMVPVDAPNPYRSENCLCVQNILKLMQEKETGLNVFLLDMCRKRNDYDDTIPILDALKVTANIVFGYATCQGAEAFEIQHSGLANGIFMKFLKDRLLEDKKITVLLDEVAEDMGKCHLTKGKQALEIRSSLSEKRALTDPIQGTEYSAESLVRNLQWAKAHELPESMCLKFDCGVQIQLGFAAEFSNVMIIYTSIVYKPPEIIMCDAYVTDFPLDLDIDPKDANKGTPEETGSYLVSKDLPKHCLYTRLSSLQKLKEHLVFTVCLSYQYSGLEDTVEDKQEVNVGKPLIAKLDMHRGLGRKTCFQTCLMSNGPYQSSAATSGGAGHYHSLQDPFHGVYHSHPGNPSNVTPADSCHCSRTPDAFISSFAHHASCHFSRSNVPVETTDEIPFSFSDRLRISEK

Variants of: B1
Conditions: with ubc_human UBC

| effect of a mutation on the interaction | Variant |
| --- | --- |
| disrupting interaction | K644R;K648R;K661R;K665R;K677R;K679R;K702R;K709R;K714R;K724R;K824R |
